Results reported in the RNAGym collection of RNA variant scans (doi:10.1021/acssynbio.7b00057).

B1: Pistol ribozyme (parent)
chain: GGGUCGUUGUUCCAUAAUCGCGUGGAUAUGGCACGCAAGUUUCUACCGGGCACCGUAAAUGUCCGACUGGAGCCGUUCGGGCGGCUAUAAACAGACCUCAGGCCCGAAGCGUGGCGGCACCUGCCGCCGGUGGUAAAAAAGAUCGGAAGAGCACACGUCU

Variants of: B1
Assay: aptazyme ON/OFF ratio, guanine; higher = stronger switching; co-transcriptional cleavage with and without guanine

Which “aptazyme ON/OFF ratio” value does the source give for U7A U8C G9A C12G here?
Its value is 1.43.

With U7G U8A G9C C12A C13U as the variant, how does the “aptazyme ON/OFF ratio” value read?
Its value is 0.986.

For U7A U10A C12G C13A, which “aptazyme ON/OFF ratio” value is on record?
The value was 1.31.

For U7C U8C G9C U10C U11G C13A, which “aptazyme ON/OFF ratio” value is on record?
Its value is 1.33.

Which “aptazyme ON/OFF ratio” value does the source give for U7G U8A G9U C13U here?
The value was 1.3.

For U7A U8A G9A C12A C13U, which “aptazyme ON/OFF ratio” value is on record?
Its value is 1.07.

With U7G G9A U10A U11C C12G C13A as the variant, how does the “aptazyme ON/OFF ratio” value read?
The value was 1.1.

For U7C U8A G9C U10C U11C C12U C13A, which “aptazyme ON/OFF ratio” value is on record?
Its value is 1.03.

With G9A U11C C12G as the variant, how does the “aptazyme ON/OFF ratio” value read?
Its value is 1.45.

Which “aptazyme ON/OFF ratio” value does the source give for U7G U8A U10C C12A C13G here?
The value was 1.27.

For U7G G9U U10C C12G C13A, which “aptazyme ON/OFF ratio” value is on record?
The value was 1.27.

Which “aptazyme ON/OFF ratio” value does the source give for U7G U8G C12A C13U here?
Its value is 1.57.

With U7G U8C G9U U10A U11G C13A as the variant, how does the “aptazyme ON/OFF ratio” value read?
The value was 1.14.

With U7C U8C G9U U11A as the variant, how does the “aptazyme ON/OFF ratio” value read?
Its value is 1.64.

With U7G U10A U11C C12A as the variant, how does the “aptazyme ON/OFF ratio” value read?
The value was 1.16.

With U7A U8G G9U U10A U11G C12G as the variant, how does the “aptazyme ON/OFF ratio” value read?
The value was 1.19.

Which “aptazyme ON/OFF ratio” value does the source give for U7G U8C G9U U10G U11A here?
The value was 1.21.

For U7G U8A G9A U10G U11C C12G C13A, which “aptazyme ON/OFF ratio” value is on record?
The value was 1.1.

For U7C U10C U11A C12U C13A, which “aptazyme ON/OFF ratio” value is on record?
The value was 1.28.

For U8A G9U U11A C12G C13U, which “aptazyme ON/OFF ratio” value is on record?
The value was 1.3.

For U8G U10C C13U, which “aptazyme ON/OFF ratio” value is on record?
The value was 1.15.

Which “aptazyme ON/OFF ratio” value does the source give for U7C U8C G9C U11C C12G C13A here?
The value was 1.09.

Which “aptazyme ON/OFF ratio” value does the source give for U7A U8C G9U U10C U11G C12A C13A here?
The value was 1.13.

With U7C U8A G9C C12U C13G as the variant, how does the “aptazyme ON/OFF ratio” value read?
The value was 1.07.

With U7A U8A U10A U11C C12G C13G as the variant, how does the “aptazyme ON/OFF ratio” value read?
The value was 1.24.

For U8C G9C U10C U11G C12G C13G, which “aptazyme ON/OFF ratio” value is on record?
Its value is 1.09.

With U8A G9U U10C U11A C12G as the variant, how does the “aptazyme ON/OFF ratio” value read?
Its value is 1.06.

Which “aptazyme ON/OFF ratio” value does the source give for U7G U8G G9C U10A U11C C12G C13A here?
The value was 1.06.

With U7C U8C U10A C12A as the variant, how does the “aptazyme ON/OFF ratio” value read?
Its value is 1.06.

Which “aptazyme ON/OFF ratio” value does the source give for U7C U8G G9C U11A C12U here?
The value was 1.28.

With U8C G9A U10C C12U C13G as the variant, how does the “aptazyme ON/OFF ratio” value read?
Its value is 1.26.

Which “aptazyme ON/OFF ratio” value does the source give for U7C U8A U10A C12A C13A here?
The value was 1.17.

For U7C U8C G9A U10G U11A C12A, which “aptazyme ON/OFF ratio” value is on record?
The value was 1.37.

Which “aptazyme ON/OFF ratio” value does the source give for U7G U8G G9U U10C U11A C13U here?
The value was 1.23.

For U8G G9A U11G C12U C13A, which “aptazyme ON/OFF ratio” value is on record?
Its value is 1.2.

Which “aptazyme ON/OFF ratio” value does the source give for U7C G9C U10A C13A here?
Its value is 1.04.

For U7G G9U U11G C12G C13G, which “aptazyme ON/OFF ratio” value is on record?
Its value is 1.21.

Which “aptazyme ON/OFF ratio” value does the source give for U7G U8C U11G C13U here?
The value was 1.17.

For U7A U8G G9A U10G U11C C12A C13U, which “aptazyme ON/OFF ratio” value is on record?
Its value is 1.38.

With G9A U10A U11A as the variant, how does the “aptazyme ON/OFF ratio” value read?
The value was 2.7.

With U7A U8C G9C U10A U11C C12G C13A as the variant, how does the “aptazyme ON/OFF ratio” value read?
The value was 1.29.

With U8G G9C U10C U11C C13U as the variant, how does the “aptazyme ON/OFF ratio” value read?
The value was 1.03.

With U7G U8C G9C U10C U11C C12A C13U as the variant, how does the “aptazyme ON/OFF ratio” value read?
Its value is 1.05.

Which “aptazyme ON/OFF ratio” value does the source give for U7A G9A U10G U11C C12G C13U here?
Its value is 1.1.

Which “aptazyme ON/OFF ratio” value does the source give for U7A U10G here?
Its value is 1.56.

For U7C U8A G9A U10G U11C C13U, which “aptazyme ON/OFF ratio” value is on record?
The value was 1.

With U8G G9U U10G U11G C12U as the variant, how does the “aptazyme ON/OFF ratio” value read?
The value was 1.2.

With U7A G9A U10G U11A C12G C13G as the variant, how does the “aptazyme ON/OFF ratio” value read?
Its value is 1.31.

For U8G G9C U10A U11C C12G, which “aptazyme ON/OFF ratio” value is on record?
The value was 1.14.

With U7A U8C G9U U10G U11G C13A as the variant, how does the “aptazyme ON/OFF ratio” value read?
The value was 1.18.

For U8A G9U U10G U11A C12U, which “aptazyme ON/OFF ratio” value is on record?
Its value is 1.05.

With U7G U8A G9A U10C C12U C13A as the variant, how does the “aptazyme ON/OFF ratio” value read?
Its value is 1.08.

With U7A U10C C13G as the variant, how does the “aptazyme ON/OFF ratio” value read?
Its value is 1.08.

For U7A U8A G9C U10C C12U C13G, which “aptazyme ON/OFF ratio” value is on record?
The value was 1.1.

With U7G U8G U10C U11C C12A C13U as the variant, how does the “aptazyme ON/OFF ratio” value read?
Its value is 1.22.

With U8G G9U U10G U11C C12A C13G as the variant, how does the “aptazyme ON/OFF ratio” value read?
Its value is 1.02.

For U7C U8G U10C U11C C12U C13A, which “aptazyme ON/OFF ratio” value is on record?
Its value is 1.04.

For U7C U8G G9C U10G U11C C12A, which “aptazyme ON/OFF ratio” value is on record?
The value was 1.24.

For U7G U10G U11A C13U, which “aptazyme ON/OFF ratio” value is on record?
The value was 1.11.

Which “aptazyme ON/OFF ratio” value does the source give for U7G U8A G9U U10A U11C C12G C13U here?
Its value is 1.05.

For U7A U8C G9U U10C, which “aptazyme ON/OFF ratio” value is on record?
The value was 1.55.

For U8G G9C U10A U11G C12U C13A, which “aptazyme ON/OFF ratio” value is on record?
Its value is 1.06.

Which “aptazyme ON/OFF ratio” value does the source give for U7G U8A U10C C12U C13A here?
Its value is 1.24.

Which “aptazyme ON/OFF ratio” value does the source give for U7A U8A G9U U10A U11C C12G here?
The value was 1.18.

Which “aptazyme ON/OFF ratio” value does the source give for U7A U8A G9A U10C C12G here?
Its value is 1.05.

With U7C U8C G9C U11G C12G as the variant, how does the “aptazyme ON/OFF ratio” value read?
The value was 1.11.

For U7C U8A G9C U10G U11A C12U, which “aptazyme ON/OFF ratio” value is on record?
The value was 1.08.

For U7C U8A G9A U10C U11A, which “aptazyme ON/OFF ratio” value is on record?
Its value is 1.23.

With U8G U11G C12U C13G as the variant, how does the “aptazyme ON/OFF ratio” value read?
The value was 1.24.

With U7C G9U U10G U11G C12U as the variant, how does the “aptazyme ON/OFF ratio” value read?
The value was 1.16.

Which “aptazyme ON/OFF ratio” value does the source give for U7A G9A U11C C12U C13U here?
Its value is 1.22.

With U7C G9A U10C U11C C12U C13A as the variant, how does the “aptazyme ON/OFF ratio” value read?
The value was 1.04.

With U7C U8G U10C U11C C12U as the variant, how does the “aptazyme ON/OFF ratio” value read?
The value was 2.76.

Which “aptazyme ON/OFF ratio” value does the source give for U8A C12A C13A here?
The value was 1.24.

With U7G U8A G9C U10G C13G as the variant, how does the “aptazyme ON/OFF ratio” value read?
The value was 1.09.

For U7G U10G U11C C12G, which “aptazyme ON/OFF ratio” value is on record?
Its value is 1.25.

With U7G U8C U10A U11G C12G C13G as the variant, how does the “aptazyme ON/OFF ratio” value read?
Its value is 1.3.

For U7G G9U U10A U11A C12A C13U, which “aptazyme ON/OFF ratio” value is on record?
The value was 1.38.

With U7A U8C G9A U10G C13U as the variant, how does the “aptazyme ON/OFF ratio” value read?
Its value is 1.09.

For U7G U8A U10A C12A C13U, which “aptazyme ON/OFF ratio” value is on record?
The value was 1.08.

With U7G U10C U11C C12G as the variant, how does the “aptazyme ON/OFF ratio” value read?
The value was 1.13.

Which “aptazyme ON/OFF ratio” value does the source give for U7C U8G G9U U10G U11G C12G C13G here?
The value was 1.24.

For U7C U8C G9C U10A U11C C12U, which “aptazyme ON/OFF ratio” value is on record?
Its value is 1.17.

With U7C U8A G9C U11G C13A as the variant, how does the “aptazyme ON/OFF ratio” value read?
The value was 1.07.
